± gives the uncertainty stated by the source.
Assay: amyloid nucleation score (Sup35N fusion, yeast selection) (log enrichment); library NNK2; higher = more nucleation; inactive = no reads after selection
How it was run: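 After 24 hours of induction with 100 μM copper sulfate, psi-negative yeast expressing peptides of 20 random codons fused to Sup35N were grown for 7 days at 30°C on medium lacking adenine and uracil. Input and output plasmid inserts were sequenced with Illumina, and sequences with under 100 input reads were discarded. Scores for nucleation are the DiMSum log enrichment of output over input reads, centred on the mode score of non-aggregating sequences.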

Substance | amyloid nucleation score
CNLSSCGHSFINLSYEDLCQ | inactive
CPDISGVSRHRAKRQKNWLY | inactive
CPMPITRSAVFACTITCSVA | 5.99 ± 0.079
CPRLCLMLLPFKTCMIGTRE | 0.57 ± 0.81
CPSFMNSFDASRNIWIVPSG | 3.28 ± 0.058
CPSWFLSGDKCFYRGESSEN | -0.184 ± 0.63
CPTFKIKRDMSLTHRLFNIY | -1.64 ± 0.54
CQSAASVL | -0.148 ± 0.31
CQSRY | -0.373 ± 1.1
CRASG | 0.409 ± 0.25
CRLLCVIGLYVDNLGPPLAR | -0.044 ± 0.35
CRLVEAEYSSRKRLQVSLWA | 0.102 ± 0.79
CRNQMQGWWYVWMVGVCRGS | inactive
CRQISGNTNVRLGASSMRII | -0.526 ± 0.55
CRRGDLKDDEIYAMHLHRVS | -1.12 ± 0.78
CRTLSGCYQDCGAVNGVLRV | 1.22 ± 0.3
CRVLGQRRGASTNVSVHIVE | -0.097 ± 1.1
CRYEIKLCYDLMQNPLFTRS | -0.522 ± 0.41
CRYRLYYRCEVLEYLSDFTW | -0.492 ± 0.56
CSAVAALLPILGMELIGTSI | -0.41 ± 0.55
CSEVLRTFGKARHTEAR | 0.501 ± 0.2
CSNLSV | 0.167 ± 0.28
CSRIHIV | -0.255 ± 1.1
CSTLVRIR | 0.723 ± 0.46
CSTVLRGCVLGQYLYGYSSG | -0.258 ± 0.41

Substance | amyloid nucleation score
CSVCYFPEGNLFNGE | inactive
CSWGCNDFRSCLALVMDCHA | 1.02 ± 0.61
CSYFMGLIVILRVKCRYMLK | -1.18 ± 0.32
CTAYNITYMTATSRGMSC | inactive
CTCKRLVLRVVVEWA | 1.82 ± 0.12
CTCNLWYTLMCAFHASRLVH | 0.327 ± 0.34
CTFTRLRSSAGSGIRQTPRL | 0.048 ± 0.79
CTMYLALRGVW | 4.56 ± 0.056
CTRMRPPYLEHQSCDRLSSR | 0.241 ± 0.54
CTSCERSLAKRLQGWHIF | -1.09 ± 0.63
CTVTK | 1.45 ± 0.11
CTYVYESRHQGIGVLASLSN | -0.784 ± 0.76
CVAVNLCVAALV | -0.049 ± 0.76
CVGSLQLHGVSRRCIRCWGR | 1.15 ± 0.4
CVLQNWYSTSTPKSWLRGNV | 0.678 ± 0.41
CVNSLALGRVSIVGISSGWW | 0.284 ± 0.51
CVVVRSCI | -0.342 ± 1.1
CWDCKLPHRPGVFMRNNHFK | -0.015 ± 0.45
CWGNGGQKRLFVLFSFAY | 0.063 ± 1.1
CWMFVVHIAIWGGVSLDGIV | 0.208 ± 1.1
CWNACSLRLNDGAGDPGWRD | 0.36 ± 0.22
CYAGFCN | inactive
CYMCWFNIILLQKFKRQGVL | 4.29 ± 0.063
CYSVFSLY | -0.81 ± 1
CYTNYIYVLAAMWTSEIRKV | inactive

Substance | amyloid nucleation score
DALLNFTRLSITNNVNIGP | 5.894 ± 0.046
DANDSSWEGG | 0.669 ± 0.74
DARFLPVVLRKKTDSICYVN | -0.177 ± 0.79
DARKNVDRSPSSLSEKVLSL | 0.642 ± 0.34
DCAWNFWFSLVYRLVISGHS | -0.38 ± 0.6
DCDMVFFLGIFFKSSGGKGN | 2.57 ± 0.083
DCFPLLLNRFRPEHYVRWHR | 0.887 ± 0.57
DCLLCFFGSHSILVRPILKV | inactive
DCLLGNSSPAV | -0.594 ± 1.1
DCLLSFVRVRSSPSVRY | 4.47 ± 0.056
DCQMRDNASVNIIVRFQYVY | 5.08 ± 0.082
DCRIVREHLPCPSFFRSFSR | 0.164 ± 1.1
DCRVGSLSAGRQLSARAAGK | 0.633 ± 0.41
DCSCFYFF | 2.96 ± 0.08
DCSMVIMYFASGRSRALSNR | 4.48 ± 0.067
DCVNGVLFDGSPHVYGFLEW | 0.419 ± 0.32
DDIAVCWNCFVRLILMMWED | 1.57 ± 0.42
DDIFIRKLFQYS | inactive
DDLSMRVVRLRNVTLYHYFG | 3.21 ± 0.088
DDMTGDHRPSFRSMIMVGVI | 0.918 ± 0.67
DDVMMILGNNTSYVLFNMPC | inactive
DDWEVRN | 0.231 ± 0.31
DECAVPRSE | 0.7 ± 0.51
DEEVSWRIG | 0.196 ± 0.46
DEGKA | -0.507 ± 0.42

Substance | amyloid nucleation score
DFCYFSFRPLHLRFQNTDWP | 0.007 ± 1.1
DFFMTPGTLGIGTLSNISFY | inactive
DFMSSVFCQAVWVHAPRRVR | 0.6 ± 0.74
DFNSCRLTVHLRYTSVPCRY | 0.233 ± 0.74
DFNVSLSCHEKLMMVSFRWR | -0.373 ± 0.34
DFSLGLWRVTDIDYVSNVSL | 0.151 ± 0.8
DFTVSHI | inactive
DGDICLLRYFFLTMILELAI | -2.02 ± 0.78
DGIRVLCLTALPFMWVH | inactive
DGNFHNFLLCNNEMFREMDC | 2.63 ± 0.13
DGSERIPCLSNYHMLRLTNS | -0.001 ± 0.32
DGYIVFSRNAVNIFSVYFTG | 6.212 ± 0.04
DGYMMGALQNYCNCTRFVLN | inactive
DHAYYDTSCGIRTPFVMIVR | inactive
DHITVVAIKKEHLVEIIYVY | -0.904 ± 0.35
DHVLSFDSIVVWYLRIGGEE | -0.656 ± 1.1
DIDGWCTIYMDIVYMKTCPY | 0.262 ± 0.56
DIDKGSTEGDVMEGKLVNNV | 0.171 ± 0.2
DIHRPQRYISKYSSTREWVG | -0.224 ± 0.32
DIKYCRSFCWLSTIFRTLGP | 0.249 ± 0.37
DINKFVAVWCHYLSGKGLLP | -0.359 ± 0.26
DISVLSLQYMS | -0.105 ± 0.8
DIWMAINVGAYGVCEFCVSR | 5.88 ± 0.071
DIYFGDQNDCLKR | -1.17 ± 0.64
DKYITCVESWWPSILGGEKP | 1.87 ± 0.23

Substance | amyloid nucleation score
DKYSWRKNGCGGWCVTTVVG | 0.573 ± 0.3
DLAFNFASWLCRAKFNGSRC | 5.04 ± 0.09
DLDIC | -0.2 ± 0.3
DLGPLFDCCSVYGGAECCIE | -0.1 ± 0.49
DLLHETML | -0.781 ± 1.1
DLLRPSGMFFCYGQFYCLKC | -1.05 ± 0.39
DLMDVEGLSGPPLRSMQVLK | 5.003 ± 0.05
DLPYSSVIRKYMSKMWLHMN | 0.218 ± 0.36
DLRLTSHIRSFIFAGVPVLF | -1.65 ± 0.49
DLSLESLRSNEVEAVNMFVF | inactive
DLVNV | 1.8 ± 0.38
DLYIS | 0.13 ± 0.8
DMAKGVLRSLFGTA | -0.154 ± 0.36
DMLPLMSAVPHSFSMLVWGE | -0.109 ± 0.36
DMRLKGLTRVFTGDNRFSLL | -0.064 ± 0.54
DMRTIGEHCW | 1.02 ± 0.52
DMVDLCSKDMSRALFGPNMS | 5.39 ± 0.059
DMVVMVYALLGPLQFECNK | 0.888 ± 0.15
DNDCHCSWENISYLWGHLRG | inactive
DNELFPLYWNR | 0.309 ± 0.15
DNGNTMDES | 0.232 ± 0.55
DNLNRAKFDLELVESGFWVV | inactive
DNRKDSFMLHSFGTKVSGHK | 0.918 ± 0.37
DNSAGDLYNSSVTGSPVMQL | -0.447 ± 0.22
DNSFMSLYLVRIHFTYPVAA | 3.69 ± 0.082

Substance | amyloid nucleation score
DNTELFKNDFKFKLYLSNKI | 1.72 ± 0.24
DPFSHGEASEWAHLIVSTCT | 0.408 ± 0.22
DPQRVFFWLPYMNLYQHEPF | 0.025 ± 1.1
DPTGIGWIKEQSLVCCGGVS | 2.84 ± 0.081
DQCPFFSVWWSSLDYSWM | -0.094 ± 1
DQFSGNACSIIVLVSALACF | 3.01 ± 0.17
DQIEIISLKNCTVG | inactive
DQLVLELHWTESILSYVVMP | 0.816 ± 0.48
DQSFLF | -0.039 ± 0.39
DQSGDQARNCKCFGSSL | 0.298 ± 0.5
DQYYNH | 0.29 ± 0.77
DRESRFLYVYHSRY | inactive
DRHIVLSHSSGNLSRLLLAL | 5.753 ± 0.055
DRIAETSRYKRSENSLSLV | 0.099 ± 0.53
DRIQDQRIGYVVEFSIEKVS | -0.742 ± 0.28
DRSSMTG | 0.698 ± 0.21
DRSSS | 0.447 ± 0.31
DRTDVCWSSGHDHLDLCWMS | 0.273 ± 0.25
DRTKNFLCMMKRGFLSKIPW | 0.227 ± 0.56
DRYYRISSFYFISMTKLWD | inactive
DSCCIFIL | 5.67 ± 0.058
DSCFRVLHRTGFVFMSWLII | 4.82 ± 0.082
DSFIIASRL | 1.69 ± 0.1
DSFLLTPDLRDMYEL | -0.681 ± 0.26
DSGVAHCANPCRPYREPVQS | 1.09 ± 0.37

Substance | amyloid nucleation score
DSSCFIIRLHSEFMLGSRSF | -0.715 ± 0.79
DSSLNIGVLPIVTNGLTKCD | -0.29 ± 0.28
DSTPLGYSVLLSWTLVQRNL | 1.38 ± 0.54
DSVFVFGSHLFLQNSVRGRT | -0.295 ± 0.24
DSWFGRFYDEESSWCWAMVR | 0.039 ± 0.36
DSWLGRMTRDKGNASFRSAS | 1.16 ± 0.46
DSYMKRLWCRAARDRTESVW | 0.159 ± 0.46
DTCWEGCLTKTYFW | -1.29 ± 0.75
DTKRVSINVRDNVTLRSFSW | -0.392 ± 0.33
DTPGHGNACSKIRP | -0.159 ± 0.55
DTRKFLDKLYA | -0.13 ± 0.44
DTVYAF | -0.651 ± 1.1
DTWEELFKNRDNPRRKCVGL | 1.32 ± 0.41
DVAGKL | -0.151 ± 0.39
DVCYCRKPTINALRWLMMYA | -0.27 ± 1.1
DVFWKPVYARYFFHRVCMRE | inactive
DVLFDITNNGHSSLLAAV | 0.224 ± 0.8
DVRFVTEFKSYRSCCKQSMF | 2.42 ± 0.054
DWHYIEKWT | -0.12 ± 0.49
DWNTWTSNFLALTGAWTGLG | 0.062 ± 0.77

Source: the supplement of paper PMC12042874
